Measurements reported in a protein production outcome set (Wang et al. 2014).

Assay: label from the status in PepcDB records

Sequence	protein production
MDHPFNQMRLKLTTELLLDLGSLKPEHIITPRIATDEELSLIHSYDYIQAIRRASHGILNLQEAKKYGLDGDDTLQFRRMHQHSARIVGGALNLADAIMDKSVKNGCHLGGGLHHSLPGRANGFCIYNDVAITIAYLIKHYNQRVLCIDTDAHHGDGTQWSFYTEDQALIYSIHETGKFLFPGSGHYTERGNEQGFGYTVNIPLEPYTEDSSYLEVFKQTIEPIIASFKPDIIVSVHGVDVHYLDPLTHMSCTLNTLYQIPYIIKSLADTYTNGKVMMFGGGGYNIWKVVPRAWSHVFLALEHHHHHH	not failed
MDHQLQQLLDLGLEAKCLLVGINGHWGRAPWWSRPQRGRWPGGCGHLPIFQGGPERICRVLLSARGRAAAAMAAVSWPAIRLALSHVANCATAVLPPLAIDRCQAMSRPQRPARRGAEGQVRIVGGRWRNTRLAVPSLTGLRPSSDRVRETLFNWLMPRLPGARVLDLFAGSGALGLEAVSRGAGHATLIERDSSLVQRLRAHVTRLDAATQVQVLQEDAVRWLERAPAALADIVFVDPPFAACLWPAVLERLPAHVAADAWLYLEAPADAPLLPAGWHLHREGATREVRYALYRRAAATLASDPTPVVSV	failed
MDHRASRTGLFILGLCFVLSLLGRGLGESFTVFLLPISGSFGWDRAEVVSIYSLTALCTGLASPLVGRLFDRSGPRVVYTLGMTLLGGALLIAAYAERLWQLQLTVGLCVGLGIAFTGNVPNSILLGRWFGARLPTAMAVVYSAIGAGVLVMLPIAQLLIDRYGWREAYLILGGAMLILLVPLSLMPWRRFAAGADAHAQRPAQDADEDGWTLGSAMRHHAFWALFATFFFTAIGMYSISAQVVAYLVDAGFTPLQAATAWGFSGVVLVVGMLGVSWLDGVIGRRPSILFSYAISITGLVLLWLLQWYPNLLLLGGFVICFGSMIGSRGPLITATAMSIFRGRRVGTIYGTISIGSGLGSAFGSWCGGLLHDLTQSYNPVLGFALVSVVLGMIPFLVVPALRERQ	failed
MDIEERINLVLKKPTEEVLTVENLRHLFEIGAPLQHYIGFEISGYIHLGTGLMAGAKIADFQKAGIKTRVFLADWHSWINDKLGGDLEVIQEVALKYFKVGMEKSIEVMGGDPKKVEFVLASEILEKGDYWQTVIDISKNVTLSRVMRSITIMGRQMGEAIDFAKLIYPMMQVADIFYQGVTIAHAGMDQRKAHVIAIEVAQKLRYHPIVHEGEKLKPVAVHHHLLLGLQEPPKWPIESEEEFKEIKAQMKMSKSKPYSAVFIHDSPEEIRQKLRKAFCPAREVRYNPVLDWVEYIIFREEPTEFTVHRPAKFGGDVTYTTFEELKRDFAEGKLHPLDLKNAVAEYLINLLEPIRRYFEKHPEPLELMRSVKITR	not failed
MDIFQLQGLFLVLSAILGYFLHNRLSVRIVSFVNNWINLPLIFLVTYLQRGFEVSDAKIFLTSVIYNFLMFVIVLYLTREIEPFSRGSVLINSIFMNTINLPFSILLAFRGNYEISATVAVAMATLRLPIVMIIFTYLNKGISVIHNTTNNSIIRTNLSRYLPVITFLIGGSLHYVVGSVINVDIVNTINLILILIVLYEFGYQIRRVIGEMRIKDVTSKPYMIIYISRILISPILIFLILISLGITSKIIIEQVMVTAIMAPAITNVVWARVYGFGTEIIVKSTLILTPISTIIAIIFLILY	failed
MDIIRKISHFAGQTFGIWVIVFAVLGFSFPSLFTWISSYITIFLGIIMFGMGLTLQADDFKELVRKPWQVIIGVIAQYTIMPLVAFGLAFGLHLPAEIAVGVILVGCCPGGTASNVMTFLAKGNTALSVAVTTISTLLAPVVTPLLIMLFAKEWLPVSPGSLFISILQAVLFPIIAGLIVKMFFRKQVAKAVHALPLVSVIGIVAIVSAVVSGNRENLLQSGLLIFSVVILHNGIGYLLGFLCAKLLKMDYPSQKAIAIEVGMQNSGLGAALATAHFSPLSAVPSAIFSVWHNLSGSMLATYWSKKVKKKQAGSKSSNLSL	failed
MDIKNGLFIIGVIPTILFAVLTFIFWWKIRKLKDLRTLRLGRLSFFALLFLWITINGIIGSGLVLTELHQNVLLLLLIAEAVVMFLIIPMIIGIIVPISIVVLTIKMWRRESKSIGNLLLAIVVLTFLVVDWIHLSMGRLPDSWIWLKILGMVYPILSIYLAWQFGIFFLSSWVYGRRVRKQRANYYVVLGAGLIQGEHVGKLLGNRILAAVKAVRDNETILVFSGGQGPDEKVSEARAMQRYAVEVLGFPIERTMLEDQSRTTYENLFFSSQLIREKFLFFTSDYHVFRAALFAAMLKLEAQGGKGGKTAMYYRVPAFIREFIAVLNYEKKKHMIRVGIIVAIFLSIAIVSQIGYFWNQR	failed
MDIKYKFPFALIIASAALVGCTSNQVKKEEAKPNPLPKLAQTQTQALVPIFSQSVSSMPKADPLRLQLDTLNGVIFVPDPKGKVSAYRGKERLWTTRVTKHRLTAGTVAGEGIVVVGNIKGELIALDQQTGQQKWKAQLTGAVLSPSLIYQGRVTTIANDGTVFAHDAETGQQVWTYKMPTIQFSLRGQPSPVMLDDRTVVVASANGYVYGIDVISGVPRFQRRVAVSEGRSDIQRLIDIDGDPVVSGQYLVTVSYQGQVTVTDLTNLSVVWNQDASSNKRPAVYDNKVFVAQADGKLTAYDLGTGSKLWESDVLLNRQLSNPVMLGKDLVVGDLDGVIHLINPDSGQLIGRAKTRGEVSSLRVVDGHLYTSTRKGALTIWEVR	failed
MDILKTLQKHLGDVETSDFTTNAIEKSQQIAKFSRDMKNINESVGALQVLQIACKKLFNKSMGLEDKDALQASIIKQELREIVENCQFLASPLFDTQLNIAINDEIFSMIVVNPLDLLENVGEFQAYLEEKLNEIKELLGYLSESLSNPKAFMPSFSNQSLKDLLSDNLRA	failed
MDISVIDATKVNTETGLHIGESNAPVKMIEFINVRCPYCRKWFEESEELLAQSVKSGKVERIIKLFDKEKESLQRGNVMHHYIDYSAPEQALSALHKMFATQDEWGNLTLEEVATYAEKNLGLKEQKDATLVSAVIAEANAAHIQFVPTIIIGEYIFDESVTEEELRGYIEK	not failed
MDKILFDIALILIFTKIGSLISIHFKMPGVLGELIAGVILGPFILNLIQANADIKLLSDLGVVFLMFLAGIETNLDELKKAGKSSFLIALGGIIIPLIVGTLSAYMFFSNFYENLFVGVILTATSVSISVQTLTELGKLNTRSGINILGAAIIDDVLGLILITVVLAISGGTKSHGSSIFMTFIYIGIFCLVSLLAIAFLPKPIDKLTQKFKPQKGLAIFSIAAALICAFTAEKLGIAAITGAYICGLVLSPITHKEYIEKRVKIISTSFLSPIFFASVGISASVKGLNFEVLLITLIMFIIAVIGKILGCSASALTLKFKKSEALQIGVGMVSRGEVAIITANIGLQAKIISEEIFLPTLIVVILTTVITPILLKIVFSHKTQKLIDKETLT	failed
MDKQSERNESKLFISNMVESAIRIGLIFVLLMFTYDIIRPFILPVIWGAIIAVALLPLTKKLQRAYGGRRGLAATTIVLLGIALLVTPLVMVSGSIVDGATHALDVLQNGQVKIPGPKASVADWPLVGDKLYEVWTLFATNLEQAIQTFMPQIKSALTSLLGMVGGVLGSLLLSILSLAIAAGFMTYSESLASGLQTIAIRTAGENAKSWTTLIAATIKSVLLGVVGVAAIQALLIGAGFFVFGVPAAGLLTLILMILCIAQLPALLAVLPVIGYMYMTQDSTTATMFTVWAVVGALSENLLKPMFMGRGVDVPMPVILLGAIGGMLFYGIVGLFLGAVILAIWYELFVWWLSIEKAQQQEEMAELKEEEEQTESGHGAGI	not failed
MDKVILITGASGGIGEGIARELGRRCENIVGCTPPGPYRGHCHGDSTQEVPPWRRCWTPTVTPWQPLQAAVDTWGRIDVLVNNAGVMPLSACRSGGRVGAHDRREHQGRALGSGPYCQSWRHSVAGRSSISARSALSVVPTAAVYCATKFAVRAISDTAPGEYQYPRHLRQSRRRRKRTCEPSPTRRPWRRWTPIAPSRFSLDIARAVRQVIEAPQSVDTTEITITDRIGQL	not failed
MDLAGQGQYGQVYLAVNRESGDLVAIKVLSERQLLTRGFLRELNFLLTLQHPHVVGCQAIDYIRVHHSPQVSRSLVMDYCAGGTLRSLLEQEQALPLTTALRLTLDILSALAYAHHRGILHCDLKPENILLEVTATGWQAKVSDFGVARLIEDVKGSGQTGSPAYMAPERFYGQTMPASDLYAVGILLYEMIVGDRPFHGTPAELMAAHLSRPYTLPEGLPFLVRSIIAKALDKLPQRRYKSAAEMTMAVQLALEVIEAEHHQQPLLFSRSPAAVWLGEPQGFALPRLPQQVASTATGFYGVVGDRLWAWQARETIPEATAQWPLPPLPIQLYGSEVSAWLRINALPPQLFCIHDQLIPLDGHLPSTLNPLTIDARGYWWAETQIDSAAAELQLHVQLINGQGRRTLRCQWHGRTFVDTLLLNRRYGAVISRSQDPETAHPITHFQLFDRRGHWRLYTPLPAHLTLLTPAHHQPWQVAAFEDHPQQPLLVLLHLRPWRIQRLGLRFRPQFLCATPWGYVVAGRHSLNLVTHSGEIVGTAESEQEIDGLGFTGDRHLWLIRRQGSGCVIQTWDITTWDIHLIL	failed
MDLEEQKKAVIEKLIREGYIKSKRVIDALLKVPREEFLPEHLKEYAYVDTPLEIGYGQTISAIHMVGMMCELLDLKPGMKVLEIGTGCGYHAAVTAEIVGEDGLVVSIERIPELAEKAERTLRKLGYDNVIVIVGDGTLGYEPLAPYDRIYTTAAGPKIPEPLIRQLKDGGKLLMPVGRYLQRLVLAEKRGDEIIIKDCGPVAFVPLVGKEGFQG	not failed
MDLEINKGIGRNVEFKGLESQYLFIFCGGLLAVFVVFVILYMAGVNQWVCIGFGVAAATLLVWLTFRLNARYGTHGLMKAAARRRHPRYVVNRLKIPRLFTFKHWQE	failed
MDLFDTPLAPLQVLDDAEGGVRYWPQLLAPAVAQAAFAALRDGADWQRHQRTMYDRVVDVPRLLASYRLDAPLPPGLPLQLLLAAVQAQLPAPYNAVGLNLYRDGRDSVAMHHDKLHTLLAPHPIALLSLGTPRRMQLRAKQGATRAITLELAPGSLLAMSHASQLTHEHGIPKTTRALGERISVVFRVRPPARMAAGQHGPHWEALTQTDLEHHHHHH	not failed
MDLFNLLDGITFWHWLAFGFVLLAVELLGTAGYFLWLGLSALLVGALLAVLPFGWQLQWLSFATFSLLTTWLWWRRQWSRDKQDDQTRDLNQKYKQLIGRSVILEEDFSIGLNRIRIADTTWSAQCEQNIRAGTRVKIVAIDGIILIVEPISE	failed
MDLFSNLALGFQVAASPTNLLLCLTGALVGTLIGVLPGIGTIATVAMLLPITFGLPPVGALIMLAGIYYGAQYGGSTTSILVNIPGEATSVVTTLDGFQMAKQGRAGPALAIAAIGSFAAGCFATVLIALVGEPLTRLALEFGPAEYFSLMVLGLVFAVVLARGSVLKAVAMIVLGLLLSTVGSDIETGVSRMTFDVPELADGLGFATVAMGVFGFAEIIRNLDFGAATDRELVQQKITGLMPTRKDLRDAAPAIGRGTLLGSLLGILPGGGAVIASFAAYTLEKKIARDPKRFGRGAIEGVAAPESANNAAAQTSFIPLLTLGIPPNAVMALMVGAMTIHNIVPGPQVMKNQPELVWGMIASMWIGNLMLLVINLPLVGIWVRLLRVPYRLMFPSIVVFCCIGIYSVNNAPVDVVLAGAFGLIGYWLVKHDFEPAPLLLGMVLGPLMEDNLRRALLISRGDATAFVTRPLSASLLVVAAGLLILSVLPMLRRKRDEVFVESEG	failed
MDLGPEQIFGAPCRKCKEKCEGFELHFWKKTCRNCKCGQEEHGILLSTEEDRKVGRIIEDGKDTNQIAKLKADEIPMDKTSETVLNKPEPEKKDDFTKTVSYEWVPSVQNKALTRQYMQMLPKEKQPVSGSEGAQYRKKQLAKQLPAHDQDPNKCHELSRKEAKEMRQFVKKYKNEALGVGDVRLPSEMNVQHYKGHNPATDRNTPTAVDFKDTSMEPKKPQYSCYSCKHAVKEGNPAIFAERAGYDKLWHPACFICTICGEILVDMIYFWKNGKLYCGRHYCDSEKPRCAGCDELIFSNEYTQAENKNWHLIHFCCFHCHNVLAGKIYVMVGSKPVCKSCYMKIHAVVCQGCHNAIDPEEQRVIYQNFSWHASTACFLCSCCSKCLLGKKFIRVEGMIFCSIECKNMMS	failed
